Test results taken from PMC8102920.

Test system: eIF3 complex (purified, 13 subunits a-m) (rabbit (reticulocyte lysate))
Test: EMSA
Details: EMSA: 25 mM Tris-HCl pH 7.5, 5 mM Mg(OAc)2, 70 mM KCl, 0.1 mM CaCl2, 0.1 mg/ml BSA, 2 mM TCEP, 30 min at 25 C, 0.7% agarose in TBE, 75 mM KCl, 4 C; for binding signal (% RNA shifted at high eIF3): high eIF3 (4-8 uM lanes quantified)

Substance	binding signal (% RNA shifted at high eIF3)	Kd [µM]
H4 1-137 (TWJ)	28	
H4 137-241 (4E-SE)	14	
H4 241-375 (eIF3-BS)	39	
H4 FL mRNA (1-375)		4
